Results from the supplement of paper PMC10126150.
± gives the standard deviation of the averaged measurements.

System: ATP
Test: switch fluorescence ratio, 500 uM ATP over buffer (Cy3 cluster intensity, sum of 5 cycles each) (fold (ratio)); higher = stronger signal-on switching upon ATP binding; sequences stand for … in TCGTCGGCAGCGTCAGATGTGTATAAGAGACAGTTTTTTTTTTTTTTTTTTTTTTTTT…TC
Conditions: aptamer strand: ATP DNA aptamer (quencher-CACCTGGGGGAGTATTGCGGAGGAAGG + anchor), 100 nM annealed; ATP concentration: 500 uM
Procedure, shortened: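 Five buffer/ATP imaging cycles were run on Cy3-labelled switching-strand clusters on a modified Illumina MiSeq flow-cell, with NaOH stripping and re-annealing between cycles. In each cycle, clusters annealed to 100 nM quencher-labelled ATP aptamer were imaged in selection buffer, then after 15 min with 500 uM ATP at 22 °C. Per cluster, the fluorescence ratio is summed target-cycle over summed buffer-cycle Cy3 intensity, averaged per switch-domain sequence. Only clusters within 100-1000 RFU were kept.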
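Also: ATP exposure 15 min at 22 °C before imaging.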

Sequence	switch fluorescence ratio
TTTCGGGATT	1 ± 0.012
AACGCATGTG	1 ± 0.039
CGTTTACTTA	1.02 ± 0.02
CGCTGAGCTG	1 ± 0.029
TGAGAGGATC	1.018 ± 0.0025
GCTGGGGGCG	0.987 ± 0.025
AGATTGTTTA	0.981 ± 0.019
TATAACGCTT	1.01 ± 0.017
ATGTTAGGGT	0.988 ± 0.033
GTTAGGGGGG	0.979 ± 0.036
ATACTGGTAG	1.02 ± 0.047
TTTCAGAGTT	0.993 ± 0.033
TTGGGACCGT	1 ± 0.0015
CGCCATAGTG	1.01 ± 0.039
TATAAGTCAC	1.146 ± 0.011
ACGTTCTGTT	1.02 ± 0.023
ACATGGGGGG	0.993 ± 0.038
GGTCGGGACC	0.998 ± 0.033
TTTTGGGGAC	0.988 ± 0.043
AATATCTCAC	1.022 ± 0.0087
ATTGGTGTCT	1.01 ± 0.034
CATTAACGAG	1.013 ± 0.0062
ATTTGAAGGC	0.9629 ± 0.0082
AACGCGAGTA	0.986 ± 0.03
GCGTGGTCTG	0.971 ± 0.04

Sequence	switch fluorescence ratio
TCCATAAAAA	0.999 ± 0.022
AAAAGAGGGT	1.03 ± 0.048
ACGCTTGGGA	0.998 ± 0.048
AGAAGTACGT	1.04 ± 0.013
TGGGTTGGGA	0.991 ± 0.035
TGGTTGTTTG	0.968 ± 0.035
CCGGTTTGTC	1.02 ± 0.044
GATGCGCGTG	1 ± 0.019
AACCTTGGGG	1.11 ± 0.079
TATTAAGCAG	1.07 ± 0.038
GGTTGAGGCG	0.981 ± 0.054
TGTTTATATC	0.9856 ± 0.0076
CTAGTCTAAT	1.01 ± 0.039
ACAGTCAAGG	1.02 ± 0.035
TTACATTTTA	1.02 ± 0.015
AATATTTTTC	1.01 ± 0.015
AAGGGACGGC	0.9648 ± 0.0078
AGTGAGGATC	0.993 ± 0.032
TGAATAGGGG	0.989 ± 0.0095
GCCATCAAGA	0.995 ± 0.062
GAGATTGGAG	0.9892 ± 0.0044
TGTAAATGGG	0.984 ± 0.024
TAGAAGGAAT	1.05 ± 0.044
GTTTTTCGGG	0.981 ± 0.034
CACTTGTGAC	1 ± 0.016

Sequence	switch fluorescence ratio
AATAAGACGG	1.011 ± 0.0061
GGGAGCTCTG	1 ± 0.014
TGTATTGCGG	1.02 ± 0.0071
TTCAGGCCTT	1.04 ± 0.059
CGCTTAATCT	1.07 ± 0.018
TTTGGATGTG	0.984 ± 0.032
ATAAGGAACG	1.01 ± 0.061
GAGCTGTGGG	0.971 ± 0.039
GATATGTGGA	0.995 ± 0.032
AAATTTACCT	1.42 ± 0.072
AGGGGTAGCG	0.9539 ± 0.0073
AGAACATAGA	0.986 ± 0.0025
TGGTTAGTGG	1 ± 0.02
TTGTGGGAGG	0.997 ± 0.033
TCCGTGGGGA	1.16 ± 0.25
TTTATCCGCC	1.77 ± 0.21
GTTGGGAAAA	1.01 ± 0.034
TCGCTTTTTG	1.01 ± 0.027
TTGGGTCTCC	1.03 ± 0.027
AGCCGGGTAT	1.01 ± 0.016
TAAGTATGGT	1.03 ± 0.046
CATATCATGG	0.988 ± 0.037
CGAGTTCGGC	0.976 ± 0.06
GATTGGCGAG	0.998 ± 0.011
TGTTCGTCGT	0.9693 ± 0.0039

Sequence	switch fluorescence ratio
TAGATCATGC	0.994 ± 0.024
TGCGATGAGG	1.01 ± 0.046
TGGGGCTTGG	1.01 ± 0.051
ATTTATTGAA	0.996 ± 0.027
GGGCTATAGC	0.997 ± 0.056
ATATTTGCGT	0.974 ± 0.021
CGGTCAGTTT	1.025 ± 0.0089
CGAGTTGGGG	1.01 ± 0.031
CCGTTTCGGT	0.976 ± 0.014
GACCGGTGGG	0.9787 ± 0.0065
GGGGGTGCTC	1.01 ± 0.023
TGCAATTCAG	1.14 ± 0.012
GATAATCGAG	1.02 ± 0.018
CCACCGGTAT	1.69 ± 0.048
GTGGGCCAGC	0.964 ± 0.082
ATGGGTTTAG	0.994 ± 0.016
TCCATTAGGA	0.9978 ± 0.0082
TTGAAGTGCG	1.02 ± 0.049
TCATGGGGTT	1.006 ± 0.0065
CACTGTGTGG	0.987 ± 0.042
ACCTAACAGG	0.9728 ± 0.0095
TCATTTATTG	1.02 ± 0.024
TATGTCCAGT	1.0009 ± 0.00027
TTGGACTAGG	1.02 ± 0.024
CCTGGTCCTA	0.9879 ± 0.0074
